# ± gives the uncertainty stated by the source.
# B1: Transcription elongation factor A N-terminal and central domain-containing protein, residues 30 to 77; numbered along this chain, Q8N8B7 (parent)
# chain: LTELETIYVTKEHLQETDVVRAVYRVLKNCPSVALKKKAKCLLSKWKA
# Variants of: B1
# Test: abundance fitness (aPCA) (normalised: wild type 0, dead -1); higher = more abundant; growth selection in yeast, the domain comes from the species named
# Conditions: Homo sapiens
row,Variant,abundance fitness
1,E16F,0.028 ± 0.14
2,E16P,0.009 ± 0.21
3,E16S,0.021 ± 0.093
4,E16R,0.123 ± 0.071
5,L43E,-0.915 ± 0.23
6,L43G,-1.12 ± 0.14
7,L43D,-0.829 ± 0.19
8,L43A,-0.787 ± 0.15
9,L43T,-1.05 ± 0.21
10,L43Y,-0.256 ± 0.22
11,Y24H,-0.468 ± 0.16
12,Y24M,0.315 ± 0.075
13,Y24P,-0.72 ± 0.17
14,Y24I,0.105 ± 0.11
15,Y24R,0.277 ± 0.066
16,L1R,-0.202 ± 0.33
17,C41P,-1.22 ± 0.26
18,C41H,0.239 ± 0.12
19,C41K,0.171 ± 0.13
20,K45T,-0.656 ± 0.18
21,K45A,-0.57 ± 0.11
22,K45Q,-0.782 ± 0.23
23,V26D,-0.727 ± 0.21
24,V26G,-0.095 ± 0.078

row,Variant,abundance fitness
1,V26M,0.206 ± 0.11
2,V26F,0.126 ± 0.11
3,V26W,0.447 ± 0.11
4,K36V,0.066 ± 0.075
5,K36W,0.113 ± 0.094
6,K36A,-0.063 ± 0.073
7,K36M,0.085 ± 0.1
8,I7S,0.147 ± 0.087
9,I7W,-0.631 ± 0.12
10,I7G,0.224 ± 0.065
11,I7P,0.091 ± 0.13
12,I7H,-0.212 ± 0.36
13,T10Q,0.117 ± 0.11
14,T10K,-0.198 ± 0.098
15,T10V,-0.18 ± 0.12
16,T10G,-0.164 ± 0.067
17,T10I,-0.657 ± 0.43
18,T10A,-0.017 ± 0.079
19,T10E,-0.139 ± 0.1
20,T10D,-0.31 ± 0.23
21,T10S,-0.121 ± 0.084
22,L42W,-0.026 ± 0.098
23,L42C,-0.839 ± 0.36
24,L42M,-0.203 ± 0.17

row,Variant,abundance fitness
1,L42E,-0.993 ± 0.2
2,L42K,-1.13 ± 0.23
3,L42F,-0.174 ± 0.14
4,L42G,-1.05 ± 0.12
5,L42T,-0.703 ± 0.2
6,H13I,-0.668 ± 0.099
7,H13T,0 ± 0.071
8,H13F,-0.428 ± 0.091
9,V9Y,-0.147 ± 0.12
10,V9F,0.045 ± 0.16
11,V9W,-0.277 ± 0.09
12,C30P,-0.244 ± 0.14
13,C30H,-0.743 ± 0.24
14,C30I,0.204 ± 0.15
15,C30Q,-0.189 ± 0.12
16,C30N,-0.274 ± 0.14
17,E12M,-0.538 ± 0.12
18,E12N,-0.34 ± 0.17
19,E12H,-0.606 ± 0.17
20,E12K,0.138 ± 0.14
21,R25D,-0.443 ± 0.15
22,R25S,-0.257 ± 0.086
23,L14E,0.336 ± 0.065
24,L14T,0.328 ± 0.087

row,Variant,abundance fitness
1,L14D,0.184 ± 0.083
2,L14V,0.172 ± 0.065
3,A48L,-1.22 ± 0.37
4,A48V,-0.62 ± 0.18
5,L27I,-0.053 ± 0.14
6,L27E,-0.932 ± 0.16
7,L27Y,-0.352 ± 0.14
8,S44K,-0.312 ± 0.21
9,S44G,-0.141 ± 0.1
10,S44P,-0.891 ± 0.14
11,S44C,-0.73 ± 0.15
12,S44N,-0.351 ± 0.15
13,S44A,-0.232 ± 0.11
14,Q15K,0.209 ± 0.093
15,Q15I,-0.46 ± 0.15
16,Q15T,-0.213 ± 0.12
17,Q15R,0.093 ± 0.071
18,Q15M,-0.452 ± 0.13
19,Q15E,-0.016 ± 0.1
20,K11M,-0.246 ± 0.16
21,K11I,-0.08 ± 0.12
22,K11L,-0.014 ± 0.079
23,K11F,-0.747 ± 0.22
24,K11D,-0.021 ± 0.12

row,Variant,abundance fitness
1,S32T,-0.022 ± 0.094
2,S32A,0.103 ± 0.15
3,S32H,0.131 ± 0.24
4,V23G,-0.72 ± 0.08
5,V23R,-0.426 ± 0.073
6,V23L,0.041 ± 0.095
7,V23E,-0.584 ± 0.11
8,V23N,-1.04 ± 0.23
9,V23S,-0.54 ± 0.11
10,V23P,-0.833 ± 0.16
11,L4A,0.17 ± 0.083
12,L4T,0.269 ± 0.1
13,L4M,0.022 ± 0.095
14,L4S,0.216 ± 0.071
15,L4D,0.257 ± 0.092
16,L4H,0.025 ± 0.089
17,D18W,0.172 ± 0.12
18,D18C,-0.09 ± 0.19
19,D18V,-0.094 ± 0.083
20,D18R,0.24 ± 0.084
21,D18F,0.169 ± 0.17
22,E5G,-0.775 ± 0.089
23,E5C,-0.897 ± 0.17
24,E5S,-0.809 ± 0.12

row,Variant,abundance fitness
1,A39L,-0.089 ± 0.08
2,A39S,-0.745 ± 0.13
3,A39V,0.096 ± 0.078
4,Y8E,0.448 ± 0.24
5,Y8S,-0.388 ± 0.28
6,Y8G,0.156 ± 0.094
7,A34I,-0.826 ± 0.35
8,A34E,-0.308 ± 0.1
9,A34Q,-0.464 ± 0.15
10,A34K,0.148 ± 0.1
11,P31T,0.341 ± 0.077
12,P31Y,-0.021 ± 0.092
13,P31H,-0.349 ± 0.11
14,P31N,-0.016 ± 0.1
15,P31S,0.263 ± 0.071
16,V20S,-0.594 ± 0.13
17,V20P,-0.19 ± 0.12
18,V20D,-0.215 ± 0.15
19,V20F,0.071 ± 0.21
20,V20A,0.015 ± 0.1
21,E3D,-0.209 ± 0.12
22,E3G,-0.416 ± 0.074
23,E3W,0.305 ± 0.084
24,E3N,-0.001 ± 0.46

row,Variant,abundance fitness
1,A22P,-0.143 ± 0.096
2,A22N,-0.099 ± 0.13
3,A22K,0.082 ± 0.11
4,A22V,-0.37 ± 0.079
5,T2S,0.198 ± 0.11
6,T2E,0.27 ± 0.12
7,T2P,-0.629 ± 0.15
8,T2Q,-0.177 ± 0.11
9,T2R,0.011 ± 0.08
10,T17N,0.149 ± 0.13
11,T17S,-0.103 ± 0.1
12,T17H,-0.37 ± 0.32
13,T17P,0.057 ± 0.15
14,T17E,-0.315 ± 0.13
15,T17K,-0.14 ± 0.14
16,T17V,-0.526 ± 0.098
17,T17A,-0.43 ± 0.12
18,L35F,-0.293 ± 0.28
19,L35S,-0.8 ± 0.37
20,N29S,-0.144 ± 0.076
21,N29D,-0.193 ± 0.17
22,N29R,0.144 ± 0.081
23,N29F,-0.09 ± 0.15

# Source: the Human Domainome abundance scans (Beltran et al. 2025)
